Results as given in paper PMC10319874 (Scientific Reports, 2023).

Experiments:
[1] = target: histidine-tagged monomeric RgpA (rRgpAH) (Porphyromonas gingivalis W50, UniProt P28784 228-658); assay: […], Tris buffer (50 mM Tris, 150 mM NaCl, 5 mM CaCl2, pH 8.0) […]; conditions: both partners purified
RgpB = RgpB (Porphyromonas gingivalis, UniProt P95493 230-736); assay: as above; conditions: both partners purified
Chain of RgpB (P95493 230-736): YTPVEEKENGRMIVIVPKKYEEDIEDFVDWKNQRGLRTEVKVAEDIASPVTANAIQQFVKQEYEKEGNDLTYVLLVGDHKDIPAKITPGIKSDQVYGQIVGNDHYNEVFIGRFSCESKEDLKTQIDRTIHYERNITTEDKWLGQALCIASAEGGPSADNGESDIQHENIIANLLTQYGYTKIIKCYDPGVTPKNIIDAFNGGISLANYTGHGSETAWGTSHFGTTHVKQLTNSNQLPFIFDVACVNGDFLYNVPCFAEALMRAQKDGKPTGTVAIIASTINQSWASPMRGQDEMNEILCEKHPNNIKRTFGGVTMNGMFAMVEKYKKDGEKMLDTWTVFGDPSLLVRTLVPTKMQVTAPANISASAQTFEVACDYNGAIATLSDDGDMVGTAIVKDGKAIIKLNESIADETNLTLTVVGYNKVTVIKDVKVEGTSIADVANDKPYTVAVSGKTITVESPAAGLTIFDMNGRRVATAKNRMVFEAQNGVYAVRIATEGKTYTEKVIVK

Chain of histidine-tagged monomeric RgpA (rRgpAH) (P28784 228-658, tags or fused parts left off): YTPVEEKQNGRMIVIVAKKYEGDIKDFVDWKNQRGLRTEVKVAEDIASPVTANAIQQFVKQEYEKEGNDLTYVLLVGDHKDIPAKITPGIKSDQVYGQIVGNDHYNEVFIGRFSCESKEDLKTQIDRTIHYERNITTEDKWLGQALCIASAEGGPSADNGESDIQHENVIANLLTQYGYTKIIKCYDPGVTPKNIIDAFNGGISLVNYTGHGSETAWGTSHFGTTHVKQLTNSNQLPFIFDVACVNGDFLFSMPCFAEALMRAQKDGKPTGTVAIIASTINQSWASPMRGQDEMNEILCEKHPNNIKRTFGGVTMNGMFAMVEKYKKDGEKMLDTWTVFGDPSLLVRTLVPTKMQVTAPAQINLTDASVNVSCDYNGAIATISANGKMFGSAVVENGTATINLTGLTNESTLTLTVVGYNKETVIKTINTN

Binder	Ki [1]	Ki (RgpB)
recombinant RgpB propeptide (rRgpB-PP) (domain or fragment) QPAERGRNPQVRLLSAEQSMSKVQFRMDNLQFTGVQTSKGVAQVPTFTEGVNISEKGTPILPILSRSLAVSETRAMKVEVVSSKFIEKKDVLIAPSKGVISRAENPDQIPYVYGQSYNEDKFFPGEIATLSDPFILRDVRGQVVNFAPLQYNPVTKTLRIYTEIVVAVSETAEAGQNTISLVKNSTFTGFEDIYKSVFMNYEATR	22 nM	29 nM
recombinant RgpA propeptide (rRgpA-PP) (domain or fragment) QQTELGRNPNVRLLESTQQSVTKVQFRMDNLKFTEVQTPKGMAQVPTYTEGVNLSEKGMPTLPILSRSLAVSDTREMKVEVVSSKFIEKKNVLIAPSKGMIMRNEDPKKIPYVYGKSYSQNKFFPGEIATLDDPFILRDVRGQVVNFAPLQYNPVTKTLRIYTEITVAVSETSEQGKNILNKKGTFAGFEDTYKRMFMNYEPGR	13 nM	15 nM
